Experiments:
Assay in all cases: cell-based or functional assay
[1] = target: HIV-1 Env of pseudovirus 191955_A11 (HIV-1)
[2] = target: HIV-1 Env of pseudovirus 3016.v5.c45 (HIV-1)
[3] = target: HIV-1 Env of pseudovirus 3103.v3.c10 (HIV-1)
[4] = target: HIV-1 Env of pseudovirus 620345.c01 (HIV-1)
[5] = target: HIV-1 Env of pseudovirus 62357_14_D3_4589 (HIV-1)
[6] = target: HIV-1 Env of pseudovirus 6952.v1.c20 (HIV-1)
[7] = target: HIV-1 Env of pseudovirus AC10.0.29 (HIV-1)
[8] = target: HIV-1 Env of pseudovirus BJOX028000.10.3 (HIV-1)
[9] = target: HIV-1 Env of pseudovirus CAP210.2.00.E8 (HIV-1)
[10] = target: HIV-1 Env of pseudovirus CNE20 (HIV-1)
[11] = target: HIV-1 Env of pseudovirus Ce1086_B2 (HIV-1)
[12] = target: HIV-1 Env of pseudovirus Ce1172_H1 (HIV-1)
[13] = target: HIV-1 Env of pseudovirus Du172.17 (HIV-1)
[14] = target: HIV-1 Env of pseudovirus Du422.1 (HIV-1)
[15] = target: HIV-1 Env of pseudovirus PVO.4 (HIV-1)
[16] = target: HIV-1 Env of pseudovirus Q259.d2.17 (HIV-1)
[17] = target: HIV-1 Env of pseudovirus R1166.c01 (HIV-1)
[18] = target: HIV-1 Env of pseudovirus T250-4 (HIV-1)
[19] = target: HIV-1 Env of pseudovirus X1254_c3 (HIV-1)
[20] = target: HIV-1 Env of pseudovirus X2088_c9 (HIV-1)
[21] = target: MuLV envelope (negative control pseudovirus) (MuLV)

In the case of N49P7YTE (antibody), the IC50 (Titer in TZM.bl cells) [1] is reported as 39 µg/mL, the IC80 (Titer in TZM.bl cells) [1] is reported as > 50 µg/mL and the MPI [1] is reported as 56. It also gave an IC50 (Titer in TZM.bl cells) [2] of 1.15 µg/mL, an IC80 (Titer in TZM.bl cells) [2] of 9.65 µg/mL and an MPI [2] of 89. The IC50 (Titer in TZM.bl cells) [3] was 0.322 µg/mL, the IC80 (Titer in TZM.bl cells) [3] was 0.583 µg/mL and the MPI [3] was 100. The IC50 (Titer in TZM.bl cells) [4] was > 50 µg/mL, the IC80 (Titer in TZM.bl cells) [4] was > 50 µg/mL and the MPI [4] was 0. It also gave an IC50 (Titer in TZM.bl cells) [5] of 0.039 µg/mL, an IC80 (Titer in TZM.bl cells) [5] of 0.173 µg/mL and an MPI [5] of 100. The IC50 (Titer in TZM.bl cells) [6] was > 50 µg/mL, the IC80 (Titer in TZM.bl cells) [6] was > 50 µg/mL and the MPI [6] was 13. For the same substance, the IC50 (Titer in TZM.bl cells) [7] was > 50 µg/mL, the IC80 (Titer in TZM.bl cells) [7] was > 50 µg/mL and the MPI [7] was 28. For the same substance, the IC50 (Titer in TZM.bl cells) [8] was 0.018 µg/mL, the IC80 (Titer in TZM.bl cells) [8] was 0.155 µg/mL and the MPI [8] was 100. For the same substance, the IC50 (Titer in TZM.bl cells) [9] was 3.11 µg/mL, the IC80 (Titer in TZM.bl cells) [9] was 13.9 µg/mL and the MPI [9] was 99. For the same substance, the IC50 (Titer in TZM.bl cells) [10] was 0.11 µg/mL, the IC80 (Titer in TZM.bl cells) [10] was 0.317 µg/mL and the MPI [10] was 99. The IC50 (Titer in TZM.bl cells) [11] was 0.113 µg/mL, the IC80 (Titer in TZM.bl cells) [11] was 0.53 µg/mL and the MPI [11] was 99. For the same substance, the IC50 (Titer in TZM.bl cells) [12] was > 50 µg/mL, the IC80 (Titer in TZM.bl cells) [12] was > 50 µg/mL and the MPI [12] was 12. It also gave an IC50 (Titer in TZM.bl cells) [13] of 0.283 µg/mL, an IC80 (Titer in TZM.bl cells) [13] of 0.953 µg/mL and an MPI [13] of 100. For the same substance, the IC50 (Titer in TZM.bl cells) [14] was 13.2 µg/mL, the IC80 (Titer in TZM.bl cells) [14] was > 50 µg/mL and the MPI [14] was 76. It also gave an IC50 (Titer in TZM.bl cells) [15] of 0.088 µg/mL, an IC80 (Titer in TZM.bl cells) [15] of 0.394 µg/mL and an MPI [15] of 100. The IC50 (Titer in TZM.bl cells) [16] was 5.34 µg/mL, the IC80 (Titer in TZM.bl cells) [16] was 44.1 µg/mL and the MPI [16] was 82. For the same substance, the IC50 (Titer in TZM.bl cells) [17] was 0.232 µg/mL, the IC80 (Titer in TZM.bl cells) [17] was 0.782 µg/mL and the MPI [17] was 100. For the same substance, the IC50 (Titer in TZM.bl cells) [18] was > 50 µg/mL, the IC80 (Titer in TZM.bl cells) [18] was > 50 µg/mL and the MPI [18] was 43. The IC50 (Titer in TZM.bl cells) [19] was 26.2 µg/mL, the IC80 (Titer in TZM.bl cells) [19] was > 50 µg/mL and the MPI [19] was 59. It also gave an IC50 (Titer in TZM.bl cells) [20] of 0.329 µg/mL, an IC80 (Titer in TZM.bl cells) [20] of 1.06 µg/mL and an MPI [20] of 100. For the same substance, the IC50 (Titer in TZM.bl cells) [21] was > 50 µg/mL, the IC80 (Titer in TZM.bl cells) [21] was > 50 µg/mL and the MPI [21] was 4.

In the case of N49P7-54TY (antibody), the IC50 (Titer in TZM.bl cells) [1] is reported as 3.04 µg/mL, the IC80 (Titer in TZM.bl cells) [1] is reported as > 25 µg/mL and the MPI [1] is reported as 72. It also gave an IC50 (Titer in TZM.bl cells) [2] of 0.206 µg/mL, an IC80 (Titer in TZM.bl cells) [2] of 1.91 µg/mL and an MPI [2] of 92. The IC50 (Titer in TZM.bl cells) [3] was 0.151 µg/mL, the IC80 (Titer in TZM.bl cells) [3] was 0.55 µg/mL and the MPI [3] was 100. For the same substance, the IC50 (Titer in TZM.bl cells) [4] was > 25 µg/mL, the IC80 (Titer in TZM.bl cells) [4] was > 25 µg/mL and the MPI [4] was 0. The IC50 (Titer in TZM.bl cells) [5] was 0.055 µg/mL, the IC80 (Titer in TZM.bl cells) [5] was 0.192 µg/mL and the MPI [5] was 100. The IC50 (Titer in TZM.bl cells) [6] was > 25 µg/mL, the IC80 (Titer in TZM.bl cells) [6] was > 25 µg/mL and the MPI [6] was 20. For the same substance, the IC50 (Titer in TZM.bl cells) [7] was > 25 µg/mL, the IC80 (Titer in TZM.bl cells) [7] was > 25 µg/mL and the MPI [7] was 40. It also gave an IC50 (Titer in TZM.bl cells) [8] of 0.009 µg/mL, an IC80 (Titer in TZM.bl cells) [8] of 0.044 µg/mL and an MPI [8] of 100. For the same substance, the IC50 (Titer in TZM.bl cells) [9] was 0.691 µg/mL, the IC80 (Titer in TZM.bl cells) [9] was 3.33 µg/mL and the MPI [9] was 97. The IC50 (Titer in TZM.bl cells) [10] was 0.046 µg/mL, the IC80 (Titer in TZM.bl cells) [10] was 0.16 µg/mL and the MPI [10] was 100. The IC50 (Titer in TZM.bl cells) [11] was 0.067 µg/mL, the IC80 (Titer in TZM.bl cells) [11] was 0.339 µg/mL and the MPI [11] was 100. For the same substance, the IC50 (Titer in TZM.bl cells) [12] was > 25 µg/mL, the IC80 (Titer in TZM.bl cells) [12] was > 25 µg/mL and the MPI [12] was 23. For the same substance, the IC50 (Titer in TZM.bl cells) [13] was 0.124 µg/mL, the IC80 (Titer in TZM.bl cells) [13] was 0.529 µg/mL and the MPI [13] was 100. It also gave an IC50 (Titer in TZM.bl cells) [14] of 0.402 µg/mL, an IC80 (Titer in TZM.bl cells) [14] of 2.02 µg/mL and an MPI [14] of 96. The IC50 (Titer in TZM.bl cells) [15] was 0.079 µg/mL, the IC80 (Titer in TZM.bl cells) [15] was 0.314 µg/mL and the MPI [15] was 100. For the same substance, the IC50 (Titer in TZM.bl cells) [16] was 0.132 µg/mL, the IC80 (Titer in TZM.bl cells) [16] was 1.13 µg/mL and the MPI [16] was 95. For the same substance, the IC50 (Titer in TZM.bl cells) [17] was 0.131 µg/mL, the IC80 (Titer in TZM.bl cells) [17] was 0.47 µg/mL and the MPI [17] was 100. The IC50 (Titer in TZM.bl cells) [18] was 1.02 µg/mL, the IC80 (Titer in TZM.bl cells) [18] was 19.6 µg/mL and the MPI [18] was 83. The IC50 (Titer in TZM.bl cells) [19] was 0.145 µg/mL, the IC80 (Titer in TZM.bl cells) [19] was 0.599 µg/mL and the MPI [19] was 100. The IC50 (Titer in TZM.bl cells) [20] was 0.172 µg/mL, the IC80 (Titer in TZM.bl cells) [20] was 0.572 µg/mL and the MPI [20] was 100. For the same substance, the IC50 (Titer in TZM.bl cells) [21] was > 25 µg/mL, the IC80 (Titer in TZM.bl cells) [21] was > 25 µg/mL and the MPI [21] was 0.

Source: US20240117018A1
